Legend:
[1] = target: Mpa (Mycobacterium tuberculosis) (UniProt P9WQN5); settings: cited from earlier work
[2] = target: T1, Mpa (Mycobacterium tuberculosis, UniProt P9WQN5); assay: NMR
T1 chain: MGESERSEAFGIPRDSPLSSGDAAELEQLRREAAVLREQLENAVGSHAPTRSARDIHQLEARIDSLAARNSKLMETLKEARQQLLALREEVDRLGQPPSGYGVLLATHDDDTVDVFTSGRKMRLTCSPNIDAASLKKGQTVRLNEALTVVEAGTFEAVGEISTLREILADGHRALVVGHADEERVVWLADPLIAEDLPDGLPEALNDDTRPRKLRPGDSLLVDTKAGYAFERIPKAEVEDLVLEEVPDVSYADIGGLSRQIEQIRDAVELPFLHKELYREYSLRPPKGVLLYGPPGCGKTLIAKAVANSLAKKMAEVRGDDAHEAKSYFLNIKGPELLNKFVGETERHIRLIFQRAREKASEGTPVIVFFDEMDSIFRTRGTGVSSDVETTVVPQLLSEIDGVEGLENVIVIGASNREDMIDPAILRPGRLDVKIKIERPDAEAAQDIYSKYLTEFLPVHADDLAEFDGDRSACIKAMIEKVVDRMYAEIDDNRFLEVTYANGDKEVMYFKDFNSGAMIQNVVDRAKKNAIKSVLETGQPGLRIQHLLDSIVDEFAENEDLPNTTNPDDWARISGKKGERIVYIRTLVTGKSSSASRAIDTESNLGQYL

For Pup (from UniProt P9WHN5), the Kd [1] is listed as 3.5 µM.

B1: Pup (protein)
chain: MAQEQTKRGGGGGDDDDIAGSTAAGQERREKLTEETDDLLDEIDDVLEENAEDFVRAYVQKGGQ
Molecule B1 has a Kd [2] of ~28 µM.
